According to paper PMC7916210, “Identification of Novel phoP-phoQ Regulated Genes that Contribute to Polymyxin B Tolerance in Pseudomonas aeruginosa”:

B1: PPA14_11970 promoter probe (dsDNA)
DNA 1: TGTCTTTGTAACAGGAAATCCTCGATGTTCAGTCCGAAACCGAGCTGCGCGCCCCAGTTG
DNA 2: CAACTGGGGCGCGCAGCTCGGTTTCGGACTGAACATCGAGGATTTCCTGTTACAAAGACA
B2: PPA14_50740 promoter probe (dsDNA)
DNA 1: AATCGATTCAGCAATGGTACAGGTTCGTTCAGTTTCGACCGAACCCTCCCGCTTTCATCG
DNA 2: CGATGAAAGCGGGAGGGTTCGGTCGAAACTGAACGAACCTGTACCATTGCTGAATCGATT
B3: PPA14_46900 promoter probe (dsDNA)
DNA 1: GGTTCGTTCAGAAATTGTTCAGGCTTCGTTCAGGCCCGATTCAGGCCGGGTTCAGCAGAA
DNA 2: TTCTGCTGAACCCGGCCTGAATCGGGCCTGAACGAAGCCTGAACAATTTCTGAACGAACC
B4: PPA14_52350 promoter probe (dsDNA)
DNA 1: CATTTGCTGGTGTTCGTTCAGCGATGGTTCAGCTTGCCGTGGGCATAGTGGCGGCTTGCA
DNA 2: TGCAAGCCGCCACTATGCCCACGGCAAGCTGAACCATCGCTGAACGAACACCAGCAAATG

Biological target: PhoP-His (UniProt A0A0H2Z7U0 1-225)
Experiment: EMSA; PhoP 0, 2, 4 or 8 uM
Conditions: protein: recombinant; tags: C-terminal 6xHis; chain copies: 2; blunt

Row | Binder | binding result
1 | B1 | binds
2 | B2 | binds
3 | B3 | binds
4 | B4 | binds
